Experiments:
[1] = test system: hPSC-derived foregut spheroids / HLOs; experiment: hPSC-derived foregut spheroid / human lung organoid (HLO) culture: growth and phenotype; format: cell-based
Method: Given the robustness by which 3F media supported mouse and human lung bud progenitor growth and identity, experiments sought to determine whether these culture conditions could promote a distal epithelial lung progenitor-like population from hPSCs. NKX2.1+ ventral foregut spheroids were generated as previously described (Dye et al., 2016a; 2015), and were cultured in a droplet of Matrigel and overlaid with media containing 3F (FGF7, CHIR-99021, RA). Spheroids were considered to be “day 0” on the day they were placed in Matrigel. […] Epithelial structures grew first as cystic structures over the course of 2 weeks, followed by a period of epithelial folding that occurred between weeks 3-4 (FIG. 7A; FIG. 8C-D). Around 5-6 weeks in culture, the epithelial structures began forming bud-like structures that resembled human fetal epithelial distal bud tips that underwent bifurcations (FIG. 7A-B; FIG. 8D—bottom row). HLOs were passaged by gently removing Matrigel and replating in a fresh droplet while preserving structural integrity. In this way, HLOs were able to grow for over 16 weeks in culture while retaining their original shape. HLOs could also be passaged using mechanical shear through a 27-gauge needle, followed by embedding in fresh Matrigel and 3F media (FIG. 8E). Following passage, HLOs robustly re-established many small cysts that were expanded and serially passaged every 7-10 days many times (FIG. 8F).
The University of Michigan Human Pluripotent Stem Cell Research Oversight (hPSCRO) Committee approved all experiments using human embryonic stem cell (hESC) lines. hESC line UM63-1 (NIH registry #0277) was obtained from the University of Michigan and hESC line H9 (NIH registry #0062) was obtained from the WiCell Research Institute. ES cell lines were routinely karyotyped to ensure normal karyotype and ensure the sex of each line (H9-XX, UM63-1-XX). Cells are monitored for mycoplasma infection monthly using the MycoAlert Mycoplasma Detection Kit (Lonza). […]

[2] = test system: E13.5 mouse lung buds; experiment: Marker expression (QRT-PCR, immunostaining) in cultured mouse lung buds; format: cell-based
Method: RNA was extracted using the MagMAX-96 Total RNA Isolation System (Life Technologies). RNA quality and concentration was determined on a Nanodrop 2000 spectrophotometer (Thermo Scientific). 100 ng of RNA was used to generate a cDNA library using the SuperScript VILO cDNA master mix kit (Invitrogen) according to manufacturer's instructions. qRT-PCR analysis was conducted using Quantitect SYBR Green Master Mix (Qiagen) on a Step One Plus Real-Time PCR system (Life Technologies). Expression was calculated as a change relative to GAPDH expression using arbitrary units, which were calculated by the following equation: [2^(GAPDH Ct−Gene Ct)]×10,000. A Ct value of 40 or greater was considered not detectable. A list of primer sequences used can be found in Table 1.
Mouse bud, human bud, and HLO tissue was fixed in 4% Paraformaldehyde (Sigma) for 2 hours and rinsed in PBS overnight. Tissue was dehydrated in an alcohol series, with 30 minutes each in 25%, 50%, 75% Methanol:PBS/0.05% Tween-20, followed by 100% Methanol, and then 100% Ethanol. Tissue was processed into paraffin using an automated tissue processor (Leica ASP300). Paraffin blocks were sectioned 5-7 uM thick, and immunohistochemical staining was performed as previously described (Spence et al., 2009). A list of antibodies, antibody information and concentrations used can be found in Table 2. PAS Alcian blue staining was performed using the Newcomer supply Alcian Blue/PAS Stain kit (Newcomer Supply, Inc.) according to manufacturer's instructions.
For whole mount staining tissue was placed in a 1.5 mL eppendorf tube and fixed in 4% paraformaldehyde (Sigma) for 30 minutes. Tissue was then washed with PBS/0.05% Tween-20 (Sigma) for 5 hours, followed by a 2.5-hour incubation with blocking serum (PBS-Tween-20 plus 5% normal donkey serum). Primary antibodies were added to blocking serum and tissue was incubated for at least 24 hours at 4 degrees Celsius. Tissue was then washed for 5 hours with several changes of fresh PBS-Tween-20. Secondary antibodies were added to fresh blocking solution and tissue was incubated for 12-24 hours, followed by 5 hours of PBS-Tween-20 washes. Tissue was then dehydrated to 100% methanol and carefully moved to the center of a single-well EISCO concave microscope slide (ThermoFisher Cat#S99368) using a glass transfer pipette. 5-7 drops of Murray's clear ([…] [Sigma]) were added to the center of the slide, and slides were coverslipped and sealed with clear nail polish.

[3] = proportion of organoids in the medium

B1: Recombinant Human Fibroblast Growth Factor 7 (protein, UniProt P21781 32-194, looked up)
Fibroblast growth factor 7: CNDMTPEQMATNVNCSSPERHTRSYDYMEGGDIRVRRLFCRTQWYLRIDKRGKVKGTQEMKNNYNIMEIRTVAVGIVAIKGVESEFYLAMNKEGKLYAKKECNEDCNFKELILENHYNTYASAKWTHNGGEMFVALNQKGIPVRGKKTKKEQKTAHFLPMAIT
notes: Recombinant human growth factor from R&D systems, used at 10 ng/mL unless otherwise noted
[1]; 42 days 3F then 26 days FGF7 only, compared to 3F HLOs
  HLO morphology after switch to FGF7 only: lost the peripheral bud-like regions
[1]; [3]
  HLOs with 'dense' phenotype: 90%
  HLOs with clear epithelial phenotype: 5%
[2]; 5 days 4F media then 4 days FGF7 only, versus 4F
  Scgb1a1 expression after switch to FGF7 only (QRT-PCR): increased
[2]; 5 days 4F media then 4 days FGF7 only, versus 4F throughout
  SOX9 protein and mRNA expression after switch to FGF7 only: reduction of SOX9 protein and mRNA expression
[2]; FGF7 culture, compared to day 0
  Sox9 expression over time in culture (QRT-PCR): significantly reduced after 3 days in culture
[2]; FGF7 culture, length of time in culture
  Expression of mature alveolar markers Aqp5 and Sftpb over time (QRT-PCR): significant increases

— patent US11857697B2, “Compositions and methods for obtaining 3-dimensional lung-like epithelium and related uses thereof” (THE REGENTS OF THE UNIVERSITY OF MICHIGAN, priority 2017, dated 2024)
